The source of these data is article PMC4318144 (Genes & Development, 2015).

The series concerns the molecule itself. The series can be described thus: cryo-EM structure.

B1: Dark protein, full-length (residues 1–1440) (natural protein, D. melanogaster, UniProt Q7KLI1 1-1440, looked up)
chain: MDFETGEHQYQYKDILSVFEDAFVDNFDCKDVQDMPKSILSKEEIDHIIMSKDAVSGTLRLFWTLLSKQEEMVQKFVEEVLRINYKFLMSPIKTEQRQPSMMTRMYIEQRDRLYNDNQVFAKYNVSRLQPYLKLRQALLELRPAKNVLIDGVLGSGKTWVALDVCLSYKVQCKMDFKIFWLNLKNCNSPETVLEMLQKLLYQIDPNWTSRSDHSSNIKLRIHSIQAELRRLLKSKPYENCLLVLLNVQNAKAWNAFNLSCKILLTTRFKQVTDFLSAATTTHISLDHHSMTLTPDEVKSLLLKYLDCRPQDLPREVLTTNPRRLSIIAESIRDGLATWDNWKHVNCDKLTTIIESSLNVLEPAEYRKMFDRLSVFPPSAHIPTILLSLIWFDVIKSDVMVVVNKLHKYSLVEKQPKESTISIPSIYLELKVKLENEYALHRSIVDHYNIPKTFDSDDLIPPYLDQYFYSHIGHHLKNIEHPERMTLFRMVFLDFRFLEQKIRHDSTAWNASGSILNTLQQLKFYKPYICDNDPKYERLVNAILDFLPKIEENLICSKYTDLLRIALMAEDEAIFEEAHKQVQRFDDRVWFTNHGRFHQHRQIINLGDNEGRHAVYLHNDFCLIALASGQILLTDVSLEGEDTYLLRDESDSSDILRMAVFNQQKHLITLHCNGSVKLWSLWPDCPGRRHSGGSKQQLVNSVVKRFIGSYANLKIVAFYLNEDAGLPEANIQLHVAFINGDVSILNWDEQDQEFKLSHVPVLKTMQSGIRCFVQVLKRYYVVCTSNCTLTVWDLTNGSSNTLELHVFNVENDTPLALDVFDERSKTATVLLIFKYSVWRLNFLPGLSVSLQSEAVQLPEGSFITCGKRSTDGRYLLLGTSEGLIVYDLKISDPVLRSNVSEHIECVDIYELFDPVYKYIVLCGAKGKQVVHVHTLRSVSGSNSHQNREIAWVHSADEISVMTKACLEPNVYLRSLMDMTRERTQLLAVDSKERIHLIKPAISRISEWSTITPTHAASNCKINAISAFNDEQIFVGYVDGVIIDVIHDTALPQQFIEEPIDYLKQVSPNILVASAHSAQKTVIFQLEKIDPLQPNDQWPLMMDVSTKYASLQEGQYIILFSDHGVCHLDIANPSAFVKPKDSEEYIVGFDLKNSLLFLAYENNIIDVFRLIFSCNQLRYEQICEEEIAQKAKISYLVATDDGTMLAMGFENGTLELFAVENRKVQLIYSIEEVHEHCIRQLLFSPCKLLLISCAEQLCFWNVTHMRNNQLEREQKRRRSRRHKQHSVTQEDAVDAAPIAADIDVDVTFVADEFHPVNRGTAELWRNKRGNAIRPELLACVKFVGNEARQFFTDAHFSHFYAIDDEGVYYHLQLLELSRLQPPPDPVTLDIANQYEDLKNLRILDSPLMQDSDSEGADVVGNLVLEKNGGVARATPILEEASS
As for B1, the “stoichiometry N” value came to 16.
